Numbering of substitutions follows the chain as printed.
B1: Fab 23E9 (Fab, V domains shown)
VH: EVELQQSGAELVKPGASVKLSCKASGYTFTNYYMHWVKQRPGQGLEWIGEINPSSGGTNFNEKFKSKATLTVDKSSSTAYMQLSSLTSEDSAVYYCTRFDRTENGMDYWGQGTSVTVSS
VL: DNVLTQSPASLAVSPGQRATISCKASQSVDYDGDNYMNWYQQKPGQPPKLLIYAASNLESGIPARFSGSGSGTDFTLNIHPVEEEDAATYFCQQSDEDPYTFGGGTKLEIKR
B2: Fab 61E10 (Fab, V domains shown)
VH: B1 VH with E3Q, M106L
VL: B1 VL with N2I, L4M, P15L, F91Y, D96N, E97G, Y100W
B3: Fab 84H7 (Fab, V domains shown)
VH: EVQLQQSGAVLLKPGASVKLSCTASGFNIKDTYIHWMKQRPEQGLEWIGRIDPADGNTKYDPKFQGKATITADTSSNTAYLQLSSLTSEDTAVYYCTTAFYYSMDYWGQGTSVTVSS
VL: DIVLTQSQKFMSTSVGDRVSVTCKASQNVGTNVAWYQQKPGQSPKALIYSASYRYSGVPDRFTGSGSGTDFTLTISNVQSEDLAEYFCQQYNSYPRTFGGGTKLEIKR
notes: also called 84H7 (63C10)
B4: Fab 36C1 (Fab, V domains shown)
VH: B3 VH with V10E, L12V, K38N, G66D, Q82H
VL: B3 VL with L4M, K39T, S76N, K103T
B5: Fab 25A11 (murine Fab) (Fab, V domains shown)
VH: EVQLQQPGAELVKPGASVKMSCKASGYTFTSYYMYWVKQRPGQGLEWIGEINPSHGGTNFNEKFKNKATLTVDKSSSTVYMQLSSLTSEDSAVYYCTRGGNYPYFAMDYWGQGTSVTVSS
VL: DIQMTQTTSSLSASLGDRVTISCRASQDISNYLNWYQQKPDGTVKLLIYYTSRLHSGVPSRFSGSGSGTDYSLTISNLEQEDIATYFCQQGNTLPWTFGGGTKLEIKR

Key:
[1] = target: T1, Integrin alpha3/beta1 (human, UniProt P26006 33-1051; P05556 21-798); test: immunoprecipitation from PC-3 membrane lysate with biotinylated Fab, mass spectrometry
T1 construct: also called α3β1
Description: PC-3 cell membranes (10⁸ cell equivalents/mL) in Nonidet P-40 Lysis Buffer (1% Nonidet P-40, 50 mM Tris.HCl pH 7.5, 0.15 M NaCl, 10% glycerol plus Complete Protease Inhibitors) were incubated with 50 μg/mL chicken egg white avidin for 30 min on ice. Insoluble material was removed by centrifugation for 30 min at 150,000 g. The lysate was precleared with normal rabbit serum and protein G Sepharose beads (Amersham-Pharmacia, Piscataway, N.J.). Antigens were captured by adding biotinylated Fabs (10 μg/mL) to the lysate and incubating overnight at 4° C. Immobilized streptavidin was added (50 μL of packed beads per mL) for 3 h at 4° C. with gentle mixing, followed by five washes with Nonidet P-40 Lysis Buffer. After SDS-PAGE separation, antigen bands were cut from the gel.

[2] = target: CUB-domain-containing protein 1 (CDCP1) (human) (UniProt Q9H5V8); test: flow cytometry on PC-3 cells

T1 sequence (P26006 33-1051 limits assumed, chain 1 of 2): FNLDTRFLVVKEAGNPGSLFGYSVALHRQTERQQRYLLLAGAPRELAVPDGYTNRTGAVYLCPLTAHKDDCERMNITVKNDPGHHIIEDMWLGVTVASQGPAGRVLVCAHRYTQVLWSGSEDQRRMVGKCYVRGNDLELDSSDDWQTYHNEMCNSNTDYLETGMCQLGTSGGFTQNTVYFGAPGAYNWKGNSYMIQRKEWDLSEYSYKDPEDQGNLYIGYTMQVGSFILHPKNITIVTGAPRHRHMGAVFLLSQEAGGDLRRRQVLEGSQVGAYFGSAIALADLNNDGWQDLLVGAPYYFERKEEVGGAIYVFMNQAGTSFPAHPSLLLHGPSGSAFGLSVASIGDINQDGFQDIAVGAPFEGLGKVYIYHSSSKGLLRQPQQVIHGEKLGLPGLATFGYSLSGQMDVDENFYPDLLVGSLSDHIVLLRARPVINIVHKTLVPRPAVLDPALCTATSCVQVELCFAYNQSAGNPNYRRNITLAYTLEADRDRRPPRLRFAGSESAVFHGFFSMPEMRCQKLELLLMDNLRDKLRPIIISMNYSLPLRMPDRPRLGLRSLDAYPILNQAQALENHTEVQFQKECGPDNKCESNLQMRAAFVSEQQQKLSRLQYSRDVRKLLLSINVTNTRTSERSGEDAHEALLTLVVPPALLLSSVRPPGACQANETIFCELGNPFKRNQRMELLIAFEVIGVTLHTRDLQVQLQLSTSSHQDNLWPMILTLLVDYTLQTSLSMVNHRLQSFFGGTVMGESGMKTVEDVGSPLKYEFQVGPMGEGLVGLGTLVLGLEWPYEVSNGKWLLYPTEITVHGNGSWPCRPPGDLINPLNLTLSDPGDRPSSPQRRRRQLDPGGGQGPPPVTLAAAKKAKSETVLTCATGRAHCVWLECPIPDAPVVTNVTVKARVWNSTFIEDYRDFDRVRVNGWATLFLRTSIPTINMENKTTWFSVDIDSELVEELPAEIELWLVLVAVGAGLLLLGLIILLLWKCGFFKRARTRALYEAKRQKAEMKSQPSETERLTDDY
T1 sequence (P05556 21-798 limits assumed, chain 2 of 2): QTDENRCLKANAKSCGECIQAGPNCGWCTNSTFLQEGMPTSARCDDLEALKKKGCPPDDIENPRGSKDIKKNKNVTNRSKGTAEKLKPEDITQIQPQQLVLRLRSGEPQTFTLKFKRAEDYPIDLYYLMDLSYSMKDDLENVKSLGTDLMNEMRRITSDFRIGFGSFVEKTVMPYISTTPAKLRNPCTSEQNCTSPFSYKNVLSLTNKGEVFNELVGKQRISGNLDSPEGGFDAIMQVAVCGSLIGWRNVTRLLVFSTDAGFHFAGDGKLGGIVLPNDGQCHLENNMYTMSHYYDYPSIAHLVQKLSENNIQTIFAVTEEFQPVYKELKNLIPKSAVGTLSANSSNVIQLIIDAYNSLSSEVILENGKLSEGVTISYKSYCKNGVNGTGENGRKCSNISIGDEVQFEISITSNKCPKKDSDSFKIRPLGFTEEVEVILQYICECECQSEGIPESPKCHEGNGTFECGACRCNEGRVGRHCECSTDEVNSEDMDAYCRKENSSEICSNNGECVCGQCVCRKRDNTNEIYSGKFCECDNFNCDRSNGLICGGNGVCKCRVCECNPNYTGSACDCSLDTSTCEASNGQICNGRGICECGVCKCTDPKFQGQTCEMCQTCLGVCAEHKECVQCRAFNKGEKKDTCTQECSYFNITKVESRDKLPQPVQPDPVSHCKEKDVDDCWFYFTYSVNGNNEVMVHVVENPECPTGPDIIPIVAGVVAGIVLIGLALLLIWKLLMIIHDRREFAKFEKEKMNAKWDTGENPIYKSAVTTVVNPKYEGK

Row | Binder | binding result [1] | percent saturation of PC-3 cells at 160 nM Fab [2]
1 | B1 | binds | –
2 | B2 | binds | –
3 | B3 | binds | –
4 | B4 | binds | –
5 | B5 | – | 80%
